The term Kd denotes the free concentration of one partner at which half of the binding sites on the other are occupied at equilibrium, for simple one-to-one binding. By stoichiometry N is commonly meant the number of molecules, sites or subunits per partner or assembly.

Residue numbers refer to the chain shown, from its start. Where two headings read alike, the source gives them in different places.

Here are results for six molecules from doi:10.1101/2024.07.24.604958 (bioRxiv, 2024).

In assay [1] the target is T1, CIB2 (calcium and integrin-binding protein 2), wild type (mouse, UniProt Q9Z309 1-187).
T1 sequence: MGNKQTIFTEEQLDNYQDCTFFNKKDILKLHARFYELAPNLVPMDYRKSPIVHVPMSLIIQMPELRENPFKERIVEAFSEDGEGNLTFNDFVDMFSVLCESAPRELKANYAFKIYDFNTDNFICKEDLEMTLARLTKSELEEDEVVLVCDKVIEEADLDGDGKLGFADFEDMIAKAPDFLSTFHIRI
Kind of assay: ITC. For orientation: In ITC the heat of successive injections is recorded.

The next assay deals with T2, CIB2-DD157/161AA (mouse, UniProt Q9Z309 1-187, DD157/161AA | DD157/161AA).
T2 sequence: T1 sequence with D157A, D161A
Description: ITC.

A further assay concerns the target T3, CIB2-DD116/120AA (mouse, UniProt Q9Z309 1-187, DD116/120AA | DD116/120AA).
T3 sequence: T1 sequence with D116A, D120A
Description: ITC.

In assay [2] the target is T1, CIB2 (calcium and integrin-binding …). Kind of assay: ITC. This is another data set of the same source.
Assay [3] has as its target T4, CIB2, wild type, Trx-His6 tag removed (mouse, UniProt Q9Z309 1-187).
T4 sequence: T1 sequence
Description: SEC-MALS. Background: Size exclusion chromatography separates by hydrodynamic size, large species first.

In a further assay the target is T5, CIB2-E141N (mouse, UniProt Q9Z309 1-187, E141N).
T5 sequence: T1 sequence with E141N
Kind of assay: crystal structure.

Assay [4] concerns the target T4, CIB2, wild type, Trx-His6 tag removed. Kind of assay: SEC-MALS. The source holds these as a separate data set.

Turning to EELERLKALLDENRQMIATVKCKPWKMEKKIEVLKEAKKFVSENEGALGK (domain or fragment, mouse, UniProt Q8R4P5 81-130, looked up) [TMC1 cytosolic region 1 (CR1, amino acids 81-130)], the Kd was about 74 nM in assay [1] and about 870 nM in assay [2]. The “fold decrease of binding against CIB2 WT” value with CIB2-DD157/161AA is about 50 fold; with CIB2-DD116/120AA, about 150 fold.
With EELERLKALLDENRQMIATVKCKPWKMEKKIEVLKEAKKFVSENEGALGK (domain or fragment, mouse, UniProt Q8R4P5 81-130, looked up) [TMC1 CR1 (amino acids 81-130), Trx-His6 tag removed], the “stoichiometry N” value in assay [3] came to 1. The binding result with CIB2-E141N was “binds”.

B1: TMC1 cytosolic region 2 (CR2, amino acids 298-352) with MBP tag (domain or fragment, mouse, UniProt Q8R4P5 298-352, looked up)
chain: GGGDDNTFNFSWKVFCSWDYLIGNPETADNKFNSITMNFKEAIIEERAAQVEENI
Regarding B1, the Kd in assay [1] was about 480 nM; in assay [2] it was about 10800 nM.

B2: TMC1 CR2 (amino acids 298-352) as used in SEC-MALS (domain or fragment, mouse, UniProt Q8R4P5 298-352, looked up)
chain: B1 chain
In the case of B2, in assay [3], the “stoichiometry N” value stood at 1.
On to KGQKAANLDLKKKMKQQALENKMRNKKMAAARAAAAAGGQ (domain or fragment, mouse, UniProt Q8R4P5 718-757, looked up) [TMC1 CR3 (amino acids 718-757) as used in SEC-MALS], for which, in assay [4], the “stoichiometry N” value came to 1.
As for KGQKAANLDLKKKMKQQALENKMRNKKMAAARAAAAAGGQ (domain or fragment, mouse, UniProt Q8R4P5 718-757, looked up) [TMC1 cytosolic region 3 (CR3, amino acids 718-757)], in assay [2], the Kd is about 43400 nM.
